Test: Investigation of pH of bivalirudin solutions (degradation at pH 2-6)
Type: physicochemical
Conditions: 1 mg/ml aqueous solution
Protocol: The degradation pathway of bivalirudin was investigated by preparing aqueous solutions at 1 mg/ml of bivalirudin at pH 2, 3, 4, 5 and 6 (Table 1). […] The excessive degradation observed was attributed to a change in pH during storage wherein the final pH of the bivalirudin compositions was about 7.

With “D-Phenylalanyl-L-Prolyl-L-Arginyl-L-Prolyl-Glycyl-Glycyl-Glycyl-Glycyl-L-Asparagyl-Glycyl-L-Aspartyl-L-Phenylalanyl-L-Glutamyl-L-Glutamyl-L-Isoleucyl-L-Prolyl-L-Glutamyl-L-Glutamyl-L-Tyrosyl-L-Leucine trifluoroacetate (salt) hydrate [bivalirudin]” the “Asp^9-Bivalirudin” value (pH 2, 25° C./1 month) was 2.58 % AUC, the “Total Degradants” value (pH 2, 25° C./1 month) was 64.8 % AUC and the “Asp^9-Bivalirudin” value (pH 2, Initial) was 0.45 % AUC. For the same substance, the “Total Degradants” value (pH 2, Initial) was 0.6 % AUC, the “Asp^9-Bivalirudin” value (pH 3, 25° C./1 month) was 2.71 % AUC and the “Total Degradants” value (pH 3, 25° C./1 month) was 37.7 % AUC. For the same substance, the “Asp^9-Bivalirudin” value (pH 3, Initial) was 0.76 % AUC, the “Total Degradants” value (pH 3, Initial) was 0.9 % AUC and the “Asp^9-Bivalirudin” value (pH 4, 25° C./1 month) was 1.26 % AUC. The “Total Degradants” value (pH 4, 25° C./1 month) was 51.1 % AUC, the “Asp^9-Bivalirudin” value (pH 4, Initial) was 0.59 % AUC and the “Total Degradants” value (pH 4, Initial) was 3.1 % AUC. For the same substance, the “Asp^9-Bivalirudin / Total Degradants” value (pH 5, 25° C./1 month) was “complete degradation”, the “Asp^9-Bivalirudin” value (pH 5, Initial) was 0.84 % AUC and the “Total Degradants” value (pH 5, Initial) was 3.4 % AUC. For the same substance, the “Asp^9-Bivalirudin / Total Degradants” value (pH 6, 25° C./1 month) was “complete degradation”, the “Asp^9-Bivalirudin” value (pH 6, Initial) was 1.19 % AUC and the “Total Degradants” value (pH 6, Initial) was 4.7 % AUC.
